Target: His-CRMP-1 (human CRMP-1) (human, UniProt Q14194 1-572)
Experiment: pull-down

His-CRMP-1 (human CRMP-1), sequence (Q14194 whole entry): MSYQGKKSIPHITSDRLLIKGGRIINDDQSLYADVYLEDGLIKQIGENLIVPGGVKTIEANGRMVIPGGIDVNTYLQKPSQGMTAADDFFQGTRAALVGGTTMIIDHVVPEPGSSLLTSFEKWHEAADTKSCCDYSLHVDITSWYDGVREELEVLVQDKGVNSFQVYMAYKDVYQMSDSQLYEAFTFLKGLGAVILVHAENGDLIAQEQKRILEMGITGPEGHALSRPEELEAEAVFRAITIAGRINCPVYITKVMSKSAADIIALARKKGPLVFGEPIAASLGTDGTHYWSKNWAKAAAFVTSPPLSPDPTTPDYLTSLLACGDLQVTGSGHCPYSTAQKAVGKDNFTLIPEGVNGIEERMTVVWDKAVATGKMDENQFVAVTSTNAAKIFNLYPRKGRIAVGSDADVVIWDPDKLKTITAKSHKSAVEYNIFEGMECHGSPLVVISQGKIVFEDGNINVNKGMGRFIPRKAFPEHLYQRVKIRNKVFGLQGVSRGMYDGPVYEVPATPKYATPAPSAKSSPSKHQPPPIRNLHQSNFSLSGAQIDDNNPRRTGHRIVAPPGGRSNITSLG

B1: MBP-EVL (human EVL, full length) (natural protein, UniProt Q9UI08 1-416, looked up)
chain: MSEQSICQARASVMVYDDTSKKWVPIKPGQQGFSRINIYHNTASNTFRVVGVKLQDQQVVINYSIVKGLKYNQATPTFHQWRDARQVYGLNFASKEEATTFSNAMLFALNIMNSQEGGPSSQRQVQNGPSPDEMDIQRRQVMEQHQQQRQESLERRTSATGPILPPGHPSSAASAPVSCSGPPPPPPPPVPPPPTGATPPPPPPLPAGGAQGSSHDESSMSGLAAAIAGAKLRRVQRPEDASGGSSPSGTSKSDANRASSGGGGGGLMEEMNKLLAKRRKAASQSDKPAEKKEDESQMEDPSTSPSPGTRAASQPPNSSEAGRKPWERSNSVEKPVSSILSRTPSVAKSPEAKSPLQSQPHSRMKPAGSVNDMALDAFDLDRMKQEILEEVVRELHKVKEEIIDAIRQELSGISTT
- Kd: 2000 nM
